Residue numbers refer to the chain shown, from its start.
B1: 1.34a (VHH)
VHH: EVQLVESGGGLVQPGRSLRLSCAASGFTFDDYAMHWVRQAPGKDLEWVSGISWNGGSQGYADSVKGRFTISRDNAKNSLYLQMNSLRAEDTALYYCVREKGPGLTGSTADYYGLDAWGQGTMVTVSS
B2: 1.35a (VHH)
VHH: B1 VHH with Q58K
B3: 1.36a (VHH)
VHH: B1 VHH with G55A, Q58M
B4: 1.37a (VHH)
VHH: B1 VHH with M34F, Q58M
B5: 1.38a (VHH)
VHH: B1 VHH with M34L, Q58M
B6: 1.39a (VHH)
VHH: B1 VHH with M34L, Q58Y
notes: also called Humabody 1.39a
B7: 1.40a (VHH)
VHH: B1 VHH with M34L
B8: 1.41a (VHH)
VHH: B1 VHH with M34F, Q58Y
B9: 1.42a (VHH)
VHH: B1 VHH with M34F
B10: 1.43a (VHH)
VHH: B1 VHH with M34F, G55A, Q58Y
B11: 1.44a (VHH)
VHH: B1 VHH with M34L, G55S, Q58Y
B12: 1.45a (VHH)
VHH: B1 VHH with M34L, G55A
B13: 1.46a (VHH)
VHH: B1 VHH with M34L, G55A, Q58Y
B14: 1.47a (VHH)
VHH: B1 VHH with M34F, G55S, Q58Y
B15: 1.48a (VHH)
VHH: B1 VHH with M34L, G55S
B16: 1.49a (VHH)
VHH: B1 VHH with M34F, G55S
B17: 1.50a (VHH)
VHH: B1 VHH with M34F, G55A
B18: 1.6a (VHH)
VHH: EVQLVESGGGVVQPGRSLRLSCAASGFTFSSYAMHWVRQAPGKGREWVSGISWNSGSMGYAESVKGRFTISRDNAKNSLYLQMNSLRAEDSALYYCVKDKGPGLTGTTADYYGMDVWGQGTTVTVSS
B19: 1.7a (VHH)
VHH: B18 VHH with V12I, S30D, S31D, S55G, K76Q
B20: 1.15a (VHH)
VHH: B18 VHH with V5L, V11L, A23T, S30D, S31D, T105I, T107S
B21: 1.17a (VHH)
VHH: EVQLLESGGGLVQPGGSLRLSCAASGFTFDDYAMHWVRQAPGKGLEWVSGISWNSGSMGYAASVKDRFTISRDNAKNSLYLQMNSLTTEDTALYYCVKDKGPGLIGSTADYHGLDVWGQGTTVTVSS

target: T1, human PD-1 expressed on cells (CHO TREX human PD1 cell line, full-length human PD-1 sequence) (human, UniProt Q15116 21-288); assay: worded summary of the screens
T1 construct: Also used for human PD-1 on Jurkat reporter cells, on PathHunter cells and on PHA-stimulated human CD4+ T cells; also called CHO human PD1 cells; CHO human PD-1 cells
T1 sequence (Q15116 21-288): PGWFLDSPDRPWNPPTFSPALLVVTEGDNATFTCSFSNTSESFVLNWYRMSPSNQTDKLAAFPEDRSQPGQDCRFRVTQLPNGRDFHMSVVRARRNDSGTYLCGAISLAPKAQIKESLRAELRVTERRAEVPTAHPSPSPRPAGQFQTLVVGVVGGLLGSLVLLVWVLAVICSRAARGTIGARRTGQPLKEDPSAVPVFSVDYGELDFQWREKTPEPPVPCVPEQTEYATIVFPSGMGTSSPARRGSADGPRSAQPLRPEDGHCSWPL

| Binder | binding result |
| --- | --- |
| B1 | binds |
| B2 | binds |
| B3 | binds |
| B4 | binds |
| B5 | binds |
| B6 | binds |
| B7 | binds |
| B8 | binds |
| B9 | binds |
| B10 | binds |
| B11 | binds |
| B12 | binds |
| B13 | binds |
| B14 | binds |
| B15 | binds |
| B16 | binds |
| B17 | binds |
| B18 | binds |
| B19 | binds |
| B20 | binds |
| B21 | binds |

Source: patent publication US20220306744A1 (CRESCENDO BIOLOGICS, published 2022)
